# Measurements reported in the Immune Epitope Database (IEDB).
# Assays:
# HLA-B*15:03 = test: IEDB peptide-MHC binding, purified MHC/competitive/radioactivity; filed as Kd, often an IC50 or EC50 that approximates it; ≥ and ≤ were set here for values at or beyond the usual limits of such assays
# HLA-A*02:17 = test: as above
# HLA-A*02:01 [1] = test: as above
# HLA-A*02:03 = test: as above
# HLA-A*02:06 = test: as above
# HLA-A*24:03 = test: IEDB peptide-MHC binding, purified MHC/direct/fluorescence; filed as Kd, often an IC50 or EC50 that approximates it; ≥ and ≤ were set here for values at or beyond the usual limits of such assays
# HLA-B*08:02 = test: as above
# HLA-B*08:01 [2] = test: as above
# HLA-B*44:03 = test: IEDB peptide-MHC binding, purified MHC/competitive/radioactivity; filed as Kd, often an IC50 or EC50 that approximates it; ≥ and ≤ were set here for values at or beyond the usual limits of such assays
# HLA-B*40:01 [3] = test: as above
# HLA-B*44:02 [4] = test: as above
# HLA-A*32:01 = test: as above
# HLA-B*15:01 [5] = test: as above; conditions: source organism: Vaccinia virus WR
# HLA-A*30:01 = test: as above; conditions: source organism: Vaccinia virus WR
# HLA-B*08:01 [6] = test: as above
# HLA-B*46:01 = test: IEDB peptide-MHC binding, purified MHC/competitive/fluorescence; filed as Kd, often an IC50 or EC50 that approximates it; ≥ and ≤ were set here for values at or beyond the usual limits of such assays
# HLA-B*58:01 = test: IEDB peptide-MHC binding, purified MHC/direct/fluorescence; filed as Kd, often an IC50 or EC50 that approximates it; ≥ and ≤ were set here for values at or beyond the usual limits of such assays
# HLA-B*57:01 = test: as above; conditions: source organism: Vibrio vulnificus
# HLA-A*23:01 = test: IEDB peptide-MHC binding, purified MHC/competitive/radioactivity; filed as Kd, often an IC50 or EC50 that approximates it; ≥ and ≤ were set here for values at or beyond the usual limits of such assays
# HLA-B*27:05 = test: IEDB peptide-MHC binding, purified MHC/direct/fluorescence; filed as Kd, often an IC50 or EC50 that approximates it; ≥ and ≤ were set here for values at or beyond the usual limits of such assays
# HLA-B*48:01 = test: as above; conditions: source organism: Escherichia coli O157:H7
# HLA-A*03:01 = test: as above
# HLA-B*40:01 [7] = test: as above
# HLA-B*15:01 [8] = test: as above
# HLA-A*02:01 [9] = test: as above
# HLA-A*31:01 = test: as above
# HLA-A*69:01 = test: as above
# HLA-A*26:01 = test: as above
# HLA-A*11:01 = test: as above
# HLA-B*07:02 = test: as above
# HLA-A*01:01 = test: as above
# HLA-B*44:02 [10] = test: as above
# HLA-A*02:12 = test: as above; conditions: source organism: dengue virus type 3
# HLA-A*24:02 = test: IEDB peptide-MHC binding, purified MHC/competitive/radioactivity; filed as Kd, often an IC50 or EC50 that approximates it; ≥ and ≤ were set here for values at or beyond the usual limits of such assays; conditions: source organism: Mammarenavirus tacaribeense
# HLA-A*29:02 = test: as above; conditions: source organism: Mammarenavirus tacaribeense
# [11] = source organism: Vaccinia virus WR
# [12] = source organism: Dengue virus 2 Thailand/NGS-C/1944
# [13] = source organism: Dengue virus 3 Martinique/1243/1999
# [14] = source organism: Dengue virus 3 Sri Lanka/1266/2000
# [15] = source organism: Vaccinia virus Copenhagen
# [16] = source organism: Mammarenavirus lassaense
# [17] = source organism: Listeria monocytogenes serotype 4b str. H7858
# [18] = source organism: Dengue virus 1 Brazil/97-11/1997
# [19] = source organism: Dengue virus 2 Jamaica/1409/1983
# [20] = source organism: Dengue virus 4 Philippines/H241/1956
# [21] = source organism: Dengue virus 1 Singapore/S275/1990
# [22] = source organism: Aggregatibacter actinomycetemcomitans
# [23] = source organism: Yersinia pestis Nepal516
# [24] = source organism: Vibrio parahaemolyticus
sequence,measurement,setting,value
LKYYYSNSY,Kd,HLA-B*15:03; [11],0.242 nM
LMMTTIGIV,Kd,HLA-A*02:17; [12],183 nM
same,Kd,HLA-A*02:01 [1]; [12],5.88 nM
same,Kd,HLA-A*02:03; source organism: Dengue virus 2 Peru/IQT2913/1996,0.9 nM
ALFSGVSWV,Kd,HLA-A*02:06; [13],1.97 nM
same,Kd,HLA-A*02:17; [14],452 nM
same,Kd,HLA-A*02:03; [13],0.36 nM
IMTSGVIPF,Kd,HLA-B*15:03; [15],0.223 nM
AVLPRDMVF,Kd,HLA-A*24:03; [16],110 nM
HLKRRKEPL,Kd,HLA-B*08:02; [17],456 nM
same,Kd,HLA-B*08:01 [2]; [17],16 nM
SEIQLTDYGA,Kd,HLA-B*44:03; [18],42.6 nM
same,Kd,HLA-B*40:01 [3]; [18],972 nM
same,Kd,HLA-B*44:02 [4]; [18],149 nM
AEMEEALRGL,Kd,HLA-B*44:03; [19],31.6 nM
same,Kd,HLA-B*40:01 [3]; [19],13 nM
same,Kd,HLA-B*44:02 [4]; [19],17.6 nM
KKMQSYNSV,Kd,HLA-B*15:03; [11],2.81 nM
VQHNIKHSF,Kd,HLA-B*15:03; [11],0.203 nM
KLVIFPSHL,Kd,HLA-B*15:03; [11],1170 nM
AAAWYLWEV,Kd,HLA-A*02:06; [19],3.38 nM
same,Kd,HLA-A*02:17; [19],1420 nM
CMVICLLSF,Kd,HLA-B*15:03; [15],641 nM
ITNTEINSF,Kd,HLA-B*15:03; [11],421 nM
same,Kd,HLA-A*32:01; [11],413 nM
TEPEDIDCW,Kd,HLA-B*44:02 [4]; [20],1140 nM
EQKLRPNSF,Kd,HLA-B*15:01 [5],8990 nM
same,Kd,HLA-A*30:01,1010 nM
same,Kd,HLA-B*08:01 [6]; [11],6140 nM
same,Kd,HLA-B*15:03; [11],1100 nM
same,Kd,HLA-A*32:01; [11],12200 nM
LAFSTRFSF,Kd,HLA-B*46:01; source organism: Vibrio vulnificus YJ016,661 nM
same,Kd,HLA-B*58:01; source organism: Vibrio vulnificus,144 nM
same,Kd,HLA-B*57:01,292 nM
LQMEDKAWLV,Kd,HLA-A*02:06; [19],2.72 nM
same,Kd,HLA-A*02:17; [19],119 nM
same,Kd,HLA-A*02:01 [1]; [19],3.64 nM
IIIPLSVSI,Kd,HLA-B*15:01 [5],298 nM
same,Kd,HLA-A*30:01,1290 nM
same,Kd,HLA-B*08:01 [6]; [11],≥ 31000 nM
same,Kd,HLA-B*15:03; [11],1230 nM
same,Kd,HLA-A*32:01; [11],69.6 nM
MEEALKGLPI,Kd,HLA-B*44:03; [13],205 nM
same,Kd,HLA-B*40:01 [3]; [13],86.6 nM
same,Kd,HLA-B*44:02 [4]; [13],338 nM
TLYAVATTF,Kd,HLA-A*23:01; [19],134 nM
same,Kd,HLA-A*32:01; [19],81.3 nM
same,Kd,HLA-B*46:01; [12],≥ 20000 nM
MLLMLLPTAL,Kd,HLA-A*02:06; [18],5.36 nM
same,Kd,HLA-A*02:17; [21],78 nM
same,Kd,HLA-A*02:01 [1]; [21],16.6 nM
IKVTAASPM,Kd,HLA-B*15:03; [11],2.76 nM
HEMYWVSGV,Kd,HLA-B*44:02 [4]; [20],51.5 nM
ISSRESVSF,Kd,HLA-B*15:03; [15],12.1 nM
ESVKFGNSI,Kd,HLA-B*15:03; [11],102 nM
EKTQYTNDF,Kd,HLA-B*15:01 [5],12700 nM
same,Kd,HLA-A*30:01,1340 nM
same,Kd,HLA-B*08:01 [6]; [11],≥ 26700 nM
same,Kd,HLA-B*15:03; [11],832 nM
same,Kd,HLA-A*32:01; [11],≥ 77800 nM
RRHPMRLRK,Kd,HLA-B*27:05; source organism: Escherichia coli O157:H7,24.8 nM
same,Kd,HLA-B*48:01,≥ 20000 nM
KYDDRIQSQ,Kd,HLA-B*27:05; [22],≥ 20000 nM
same,Kd,HLA-A*03:01; [22],≥ 20000 nM
same,Kd,HLA-B*40:01 [7]; [22],≥ 20000 nM
same,Kd,HLA-B*58:01; [22],≥ 20000 nM
same,Kd,HLA-A*24:03; [22],≥ 20000 nM
same,Kd,HLA-B*15:01 [8]; [22],≥ 20000 nM
same,Kd,HLA-A*02:01 [9]; [22],≥ 20000 nM
same,Kd,HLA-B*08:01 [2]; [22],≥ 20000 nM
same,Kd,HLA-A*31:01; [22],≥ 20000 nM
same,Kd,HLA-A*69:01; [22],≥ 20000 nM
same,Kd,HLA-A*26:01; [22],≥ 20000 nM
same,Kd,HLA-A*11:01; [22],≥ 20000 nM
same,Kd,HLA-B*07:02; [22],≥ 20000 nM
FSILFSNNF,Kd,HLA-B*15:03; [11],29.7 nM
LSEEIGLDL,Kd,HLA-B*27:05; [23],≥ 20000 nM
same,Kd,HLA-A*03:01; [23],≥ 20000 nM
same,Kd,HLA-B*40:01 [7]; [23],≥ 20000 nM
same,Kd,HLA-A*01:01; source organism: Yersinia pestis,6380 nM
same,Kd,HLA-B*58:01; [23],≥ 20000 nM
same,Kd,HLA-A*24:03; [23],≥ 20000 nM
same,Kd,HLA-B*15:01 [8]; [23],≥ 20000 nM
same,Kd,HLA-A*02:01 [9]; [23],≥ 20000 nM
same,Kd,HLA-B*44:02 [10]; [23],≥ 20000 nM
same,Kd,HLA-B*08:01 [2]; [23],≥ 20000 nM
same,Kd,HLA-A*31:01; [23],≥ 20000 nM
same,Kd,HLA-A*69:01; [23],≥ 20000 nM
same,Kd,HLA-A*26:01; [23],≥ 20000 nM
same,Kd,HLA-A*11:01; [23],≥ 20000 nM
same,Kd,HLA-B*07:02; [23],≥ 20000 nM
AWENTVVDL,Kd,HLA-A*24:03; [16],1500 nM
SNINDFNIF,Kd,HLA-B*15:03; [11],501 nM
FLSNCEKQF,Kd,HLA-B*15:03; [11],21 nM
QYDDLHKKF,Kd,HLA-B*27:05; [24],≥ 20000 nM
same,Kd,HLA-A*03:01; [24],≥ 20000 nM
same,Kd,HLA-B*40:01 [7]; [24],≥ 20000 nM
same,Kd,HLA-A*01:01; [24],≥ 20000 nM
same,Kd,HLA-B*58:01; [24],≥ 20000 nM
same,Kd,HLA-A*24:03; [24],62.6 nM
same,Kd,HLA-A*02:01 [9]; [24],≥ 20000 nM
same,Kd,HLA-B*44:02 [10]; [24],≥ 20000 nM
same,Kd,HLA-B*08:01 [2]; [24],≥ 20000 nM
same,Kd,HLA-A*69:01; [24],≥ 20000 nM
same,Kd,HLA-A*26:01; [24],≥ 20000 nM
same,Kd,HLA-A*11:01; [24],≥ 20000 nM
same,Kd,HLA-B*07:02; [24],≥ 20000 nM
FHVRRLLKF,Kd,HLA-B*15:03; [15],21.3 nM
TLKRRSWPL,Kd,HLA-B*08:01 [6]; [13],1.18 nM
same,Kd,HLA-B*08:02; source organism: dengue virus type 3,88 nM
same,Kd,HLA-A*02:12,4 nM
SIILEFFLMV,Kd,HLA-A*02:06; [18],15.7 nM
same,Kd,HLA-A*02:17; [20],118 nM
same,Kd,HLA-A*02:01 [1]; [20],9.85 nM
MVRLPYKDA,Kd,HLA-B*15:01 [5],≥ 50700 nM
same,Kd,HLA-A*30:01,0.763 nM
same,Kd,HLA-B*08:01 [6]; [11],≥ 77700 nM
same,Kd,HLA-B*15:03; [11],≥ 29900 nM
same,Kd,HLA-A*32:01; [11],≥ 77800 nM
ALFSGVSWVM,Kd,HLA-A*02:17; [14],686 nM
same,Kd,HLA-A*02:01 [1]; [14],7.22 nM
LYGLITEQF,Kd,HLA-A*23:01; source organism: Mammarenavirus tacaribeense,3.98 nM
same,Kd,HLA-A*24:02,15.5 nM
same,Kd,HLA-A*29:02,2070 nM
same,Kd,HLA-A*24:03; source organism: Mammarenavirus machupoense,0.2 nM
ILGAQALPV,Kd,HLA-A*02:17; [20],2550 nM
same,Kd,HLA-A*02:01 [1]; [20],32.7 nM
LILGAQALPV,Kd,HLA-A*02:06; [20],18.3 nM
same,Kd,HLA-A*02:17; [20],482 nM
same,Kd,HLA-A*02:01 [1]; [20],54.4 nM
